Test results published in the supplement of paper PMC7125110.
± gives the standard error. For part of these data: Variants at the floor of the assay were thinned out.

B1: glmS ribozyme (parent)
chain: AUAAAAGCGCCAGAACUACAGAAAUGUAGUUGACGAGGAGGAGGUUUAUCGAAUUUUCGGCGGAUGCCUCCAAA

Key:
Settings in all cases: with glucosamine-6-phosphate
glucosamine-6-phosphate [1] = variants of: B1; assay: kcat; higher = faster cleavage; RNA array
Summary of the method: (§1)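 Weighted Michaelis–Menten fits across concentrations supplied kcat and KM, based on kobs from one- or two-exponential decay fits to normalised per-tile medians. The data came from barcoded ribozyme variants transcribed in situ by E. coli RNA polymerase on sequenced MiSeq chips and tracked at 37 °C by a hybridised Cy3 probe. Glucosamine-6-phosphate (40 μM to 10 mM) in HEPES/KCl/Mg(OAc)2 buffer was flowed in.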

glucosamine-6-phosphate [2] = variants of: B1; assay: KM; higher = weaker cofactor use; RNA array
Summary of the method: as §1

glucosamine-6-phosphate [3] = variants of: B1; assay: self-cleavage kobs at 640 uM GlcN6P; higher = faster cleavage; RNA array
Summary of the method: as §1

glucosamine-6-phosphate [4] = variants of: B1; assay: self-cleavage kobs at 2500 uM GlcN6P; higher = faster cleavage; RNA array
Summary of the method: as §1

glucosamine-6-phosphate [5] = variants of: B1; assay: self-cleavage kobs at 10000 uM GlcN6P; higher = faster cleavage; RNA array
Summary of the method: as §1

glucosamine-6-phosphate [6] = variants of: B1; assay: self-cleavage kobs at 160 uM GlcN6P; higher = faster cleavage; RNA array
Summary of the method: as §1

glucosamine-6-phosphate [7] = variants of: B1; assay: self-cleavage kobs at 40 uM GlcN6P; higher = faster cleavage; RNA array
Summary of the method: as §1

| Variant | kcat (glucosamine-6-phosphate [1]) [s⁻¹] | KM (glucosamine-6-phosphate [2]) [mM] | self-cleavage kobs at 640 uM GlcN6P (glucosamine-6-phosphate [3]) [s⁻¹] | self-cleavage kobs at 2500 uM GlcN6P (glucosamine-6-phosphate [4]) [s⁻¹] | self-cleavage kobs at 10000 uM GlcN6P (glucosamine-6-phosphate [5]) [s⁻¹] | self-cleavage kobs at 160 uM GlcN6P (glucosamine-6-phosphate [6]) [s⁻¹] | self-cleavage kobs at 40 uM GlcN6P (glucosamine-6-phosphate [7]) [s⁻¹] |
| --- | --- | --- | --- | --- | --- | --- | --- |
| U54C A64C | 0.000257 ± 3.3e-05 | 3.56 ± 1 | 3.19e-05 ± 1e-05 | 0.000124 ± 2e-05 | 0.000185 ± 2.1e-05 | – | – |
| C61G U69G | 1.73e-05 ± 4.8e-06 | – | – | – | – | – | – |
| U55G A64U | 0.000152 ± 1.9e-05 | 3.48 ± 0.95 | – | 6.75e-05 ± 8.7e-06 | 0.00011 ± 1.4e-05 | – | – |
| G62C C68A | 1.29e-05 ± 3.6e-06 | – | – | – | – | – | – |
| G59U G62U C67G | < 1e-05 | – | – | – | – | < 1e-05 | – |
| C58A C67A | 0.000182 ± 3.1e-05 | 2.3 ± 1 | 3.37e-05 ± 1.2e-05 | 0.000146 ± 4e-05 | 0.000144 ± 2e-05 | – | – |
| G62A C71G | 1.44e-05 ± 2.8e-06 | – | – | – | – | – | – |
| G59U C61G | < 1e-05 | – | – | – | < 1e-05 | – | – |
| U54G U56A G63C | < 1e-05 | – | – | – | – | < 1e-05 | < 1e-05 |
| U55A G66A | 0.0303 ± 0.014 | – | 0.00563 ± 0.00082 | 0.015 ± 0.0035 | 0.0286 ± 0.0061 | 0.00137 ± 0.0003 | 0.000654 ± 7.1e-05 |
| U54A U69A | 0.00011 ± 2.2e-05 | – | 0.000109 ± 1.9e-05 | 0.000141 ± 2.3e-05 | 8.28e-05 ± 1.5e-05 | 0.000107 ± 1.5e-05 | – |
| U56A U57G | 0.000127 ± 3.4e-05 | – | 3.45e-05 ± 1.3e-05 | 4.92e-05 ± 1e-05 | 0.000102 ± 2e-05 | – | – |
| G59U C61A C67A | 1.63e-05 ± 4.2e-06 | – | – | – | – | – | – |
| C58U | 0.00011 ± 3.8e-06 | 4.35 ± 0.36 | 1.66e-05 ± 1.8e-06 | 3.96e-05 ± 1.2e-06 | 7.7e-05 ± 1.3e-06 | – | < 1e-05 |
| C58A | 0.000863 ± 0.00012 | 4.11 ± 0.82 | 0.000118 ± 2.7e-06 | 0.000305 ± 7.2e-06 | 0.000665 ± 2.3e-05 | 3.84e-05 ± 2.2e-06 | 1.13e-05 ± 2.2e-06 |
| C58G | 0.000194 ± 8.4e-06 | 3.18 ± 0.3 | 3.47e-05 ± 1.2e-06 | 8.3e-05 ± 1.6e-06 | 0.000149 ± 2.3e-06 | 1.37e-05 ± 2.9e-06 | – |
| U56A | 0.0171 ± 0.0053 | 1.75 ± 0.65 | 0.00479 ± 0.00018 | 0.00725 ± 0.00034 | 0.0213 ± 0.00079 | 0.00127 ± 7.4e-05 | 0.000397 ± 7.8e-06 |

| Variant | kcat (glucosamine-6-phosphate [1]) [s⁻¹] | KM (glucosamine-6-phosphate [2]) [mM] | self-cleavage kobs at 640 uM GlcN6P (glucosamine-6-phosphate [3]) [s⁻¹] | self-cleavage kobs at 2500 uM GlcN6P (glucosamine-6-phosphate [4]) [s⁻¹] | self-cleavage kobs at 10000 uM GlcN6P (glucosamine-6-phosphate [5]) [s⁻¹] | self-cleavage kobs at 160 uM GlcN6P (glucosamine-6-phosphate [6]) [s⁻¹] | self-cleavage kobs at 40 uM GlcN6P (glucosamine-6-phosphate [7]) [s⁻¹] |
| --- | --- | --- | --- | --- | --- | --- | --- |
| U56C | 0.00571 ± 0.00066 | 3.05 ± 0.43 | 0.000963 ± 2.5e-05 | 0.00743 ± 0.0032 | 0.00442 ± 0.00011 | 0.000244 ± 8.9e-06 | 7.94e-05 ± 1.5e-06 |
| U56G | 0.04 ± 0.003 | 3.17 ± 0.31 | 0.00628 ± 0.00028 | 0.0168 ± 0.00087 | 0.0313 ± 0.0012 | 0.00186 ± 0.00015 | 0.000527 ± 1.8e-05 |
| U55C G59A | 0.000118 ± 2.1e-05 | 4.9 ± 1.9 | – | 3.74e-05 ± 1.1e-05 | 7.97e-05 ± 1.4e-05 | – | – |
| G59A C68U | 1.6e-05 ± 1.4e-06 | – | – | – | – | – | – |
| G59A C68A | < 1e-05 | – | – | – | – | – | < 1e-05 |
| G59A C68G | 1.72e-05 ± 2.3e-06 | – | – | – | – | – | – |
| G60C C70U | < 1e-05 | – | – | – | – | < 1e-05 | – |
| U55G C58A | 0.000783 ± 0.00021 | 7.73 ± 3 | 6.45e-05 ± 1e-05 | 0.000177 ± 2.2e-05 | 0.000461 ± 6.3e-05 | 2.76e-05 ± 1.3e-05 | – |
| U55G C70G | 0.000127 ± 2.5e-05 | – | 0.00014 ± 1.9e-05 | 0.000184 ± 3.8e-05 | 9.38e-05 ± 1.8e-05 | 7.54e-05 ± 1.6e-05 | 2.75e-05 ± 1.4e-05 |
| U55G C70A | 0.000145 ± 2.6e-05 | – | 0.00015 ± 3e-05 | 0.000147 ± 2.4e-05 | 0.000131 ± 2.6e-05 | 5.52e-05 ± 1.4e-05 | 5.03e-05 ± 1.3e-05 |
| U54G U55A C70G | 0.000128 ± 1.7e-05 | – | 0.000102 ± 1.5e-05 | 0.000157 ± 2.6e-05 | 0.000145 ± 2.6e-05 | – | 6.4e-05 ± 1.6e-05 |
| G60C C68A | 1.32e-05 ± 4.3e-06 | – | – | – | < 1e-05 | – | < 1e-05 |
| U57C C71A | 2.47e-05 ± 4e-06 | – | – | 2.96e-05 ± 1e-05 | – | – | – |
| U55C | 0.0394 ± 0.0032 | 2 ± 0.2 | 0.0091 ± 0.00035 | 0.0201 ± 0.001 | 0.0349 ± 0.0014 | 0.0027 ± 0.00018 | 0.000797 ± 1.8e-05 |
| U55A | 0.0533 ± 0.012 | 1.77 ± 0.53 | 0.0133 ± 0.00067 | 0.025 ± 0.0015 | 0.0555 ± 0.0025 | 0.0039 ± 0.00028 | 0.00134 ± 4.9e-05 |
| U55G | 0.0523 ± 0.0043 | 2.39 ± 0.24 | 0.0103 ± 0.00037 | 0.0271 ± 0.0015 | 0.0436 ± 0.0021 | 0.00312 ± 0.00021 | 0.000889 ± 2.1e-05 |
| C58G G60U | < 1e-05 | – | < 1e-05 | < 1e-05 | – | < 1e-05 | < 1e-05 |
